This is an account of results in patent publication US20230110958A1 (Regeneron, published 2023).

What all share (assay): cell-based or functional assay
In assay [1] the target is human IL27 receptor (IL27Ra and gp130) on NCI-H929/GAS-Luc cells (human) (UniProt Q6UWB1).
Assay [2] concerns the target T1, murine IL27 receptor (IL27Ra and gp130) on mouse cells (MC9/STAT3-Luc reporter cells; splenic CD4+ T cells) (mouse, UniProt O70394 25-623; Q00560 23-917).
T1 sequence (looked up) 1: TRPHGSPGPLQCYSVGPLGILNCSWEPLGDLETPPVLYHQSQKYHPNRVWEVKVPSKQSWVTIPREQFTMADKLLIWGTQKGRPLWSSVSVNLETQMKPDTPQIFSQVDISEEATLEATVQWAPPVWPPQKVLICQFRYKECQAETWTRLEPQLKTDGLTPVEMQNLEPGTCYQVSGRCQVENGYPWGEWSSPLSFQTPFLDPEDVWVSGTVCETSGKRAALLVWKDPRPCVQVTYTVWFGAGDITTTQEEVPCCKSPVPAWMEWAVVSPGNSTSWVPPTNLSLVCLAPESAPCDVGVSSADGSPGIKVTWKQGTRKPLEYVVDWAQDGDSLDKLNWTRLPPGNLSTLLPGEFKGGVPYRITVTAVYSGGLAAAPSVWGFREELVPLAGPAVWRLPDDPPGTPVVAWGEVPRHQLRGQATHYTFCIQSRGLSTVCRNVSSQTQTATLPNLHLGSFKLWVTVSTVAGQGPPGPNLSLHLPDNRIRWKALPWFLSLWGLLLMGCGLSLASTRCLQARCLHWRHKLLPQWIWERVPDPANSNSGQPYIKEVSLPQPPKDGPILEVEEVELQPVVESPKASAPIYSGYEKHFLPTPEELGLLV
T1 sequence (looked up) 2: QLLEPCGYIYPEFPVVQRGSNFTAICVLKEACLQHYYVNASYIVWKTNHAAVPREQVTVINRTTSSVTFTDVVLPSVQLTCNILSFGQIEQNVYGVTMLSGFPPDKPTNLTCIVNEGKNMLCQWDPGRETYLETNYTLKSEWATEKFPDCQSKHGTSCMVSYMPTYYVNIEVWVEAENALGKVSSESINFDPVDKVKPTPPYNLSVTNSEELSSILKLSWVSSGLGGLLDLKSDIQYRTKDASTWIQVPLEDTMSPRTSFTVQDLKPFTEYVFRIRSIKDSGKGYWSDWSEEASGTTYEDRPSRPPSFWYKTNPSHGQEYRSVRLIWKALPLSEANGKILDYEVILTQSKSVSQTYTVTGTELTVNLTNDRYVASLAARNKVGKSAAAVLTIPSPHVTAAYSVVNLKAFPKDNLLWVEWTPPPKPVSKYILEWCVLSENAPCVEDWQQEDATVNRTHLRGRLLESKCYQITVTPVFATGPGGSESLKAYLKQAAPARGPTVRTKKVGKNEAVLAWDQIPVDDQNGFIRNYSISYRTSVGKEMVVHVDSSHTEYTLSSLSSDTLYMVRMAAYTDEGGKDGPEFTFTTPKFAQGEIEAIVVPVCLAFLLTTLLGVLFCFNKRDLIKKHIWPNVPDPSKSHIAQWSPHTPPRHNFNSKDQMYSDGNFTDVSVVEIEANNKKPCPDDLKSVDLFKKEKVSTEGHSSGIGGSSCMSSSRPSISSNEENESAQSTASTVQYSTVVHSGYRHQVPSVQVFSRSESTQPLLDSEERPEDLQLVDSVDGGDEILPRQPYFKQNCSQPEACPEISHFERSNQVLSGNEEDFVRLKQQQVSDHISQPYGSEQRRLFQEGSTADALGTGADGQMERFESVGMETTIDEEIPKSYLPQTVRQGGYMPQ

The target in assay [3] is T1, murine IL27 receptor (IL27Ra and gp130) …. The source holds these as a separate data set.

Chain of human IL27 receptor (IL27Ra and gp130) on NCI-H929/GAS-Luc cells (human) (Q6UWB1 33-636, chain 1 of 2): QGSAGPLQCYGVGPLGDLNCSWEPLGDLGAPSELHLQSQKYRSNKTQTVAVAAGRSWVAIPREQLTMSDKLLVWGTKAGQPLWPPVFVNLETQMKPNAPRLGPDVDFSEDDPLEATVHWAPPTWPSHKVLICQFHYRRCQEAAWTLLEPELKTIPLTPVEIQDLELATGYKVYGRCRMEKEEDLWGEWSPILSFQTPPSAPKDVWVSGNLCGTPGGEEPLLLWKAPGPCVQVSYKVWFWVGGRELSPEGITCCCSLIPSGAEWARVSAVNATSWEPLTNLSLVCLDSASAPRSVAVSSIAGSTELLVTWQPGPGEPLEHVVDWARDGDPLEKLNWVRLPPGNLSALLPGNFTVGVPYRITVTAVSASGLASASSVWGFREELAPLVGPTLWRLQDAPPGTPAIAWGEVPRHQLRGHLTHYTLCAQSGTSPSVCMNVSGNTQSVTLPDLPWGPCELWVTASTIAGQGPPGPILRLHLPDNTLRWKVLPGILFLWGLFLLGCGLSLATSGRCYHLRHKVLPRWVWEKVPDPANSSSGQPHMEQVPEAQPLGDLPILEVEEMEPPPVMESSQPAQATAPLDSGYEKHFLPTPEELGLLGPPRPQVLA
Chain of human IL27 receptor (IL27Ra and gp130) on NCI-H929/GAS-Luc cells (human) (chain, as listed by the source, chain 2 of 2): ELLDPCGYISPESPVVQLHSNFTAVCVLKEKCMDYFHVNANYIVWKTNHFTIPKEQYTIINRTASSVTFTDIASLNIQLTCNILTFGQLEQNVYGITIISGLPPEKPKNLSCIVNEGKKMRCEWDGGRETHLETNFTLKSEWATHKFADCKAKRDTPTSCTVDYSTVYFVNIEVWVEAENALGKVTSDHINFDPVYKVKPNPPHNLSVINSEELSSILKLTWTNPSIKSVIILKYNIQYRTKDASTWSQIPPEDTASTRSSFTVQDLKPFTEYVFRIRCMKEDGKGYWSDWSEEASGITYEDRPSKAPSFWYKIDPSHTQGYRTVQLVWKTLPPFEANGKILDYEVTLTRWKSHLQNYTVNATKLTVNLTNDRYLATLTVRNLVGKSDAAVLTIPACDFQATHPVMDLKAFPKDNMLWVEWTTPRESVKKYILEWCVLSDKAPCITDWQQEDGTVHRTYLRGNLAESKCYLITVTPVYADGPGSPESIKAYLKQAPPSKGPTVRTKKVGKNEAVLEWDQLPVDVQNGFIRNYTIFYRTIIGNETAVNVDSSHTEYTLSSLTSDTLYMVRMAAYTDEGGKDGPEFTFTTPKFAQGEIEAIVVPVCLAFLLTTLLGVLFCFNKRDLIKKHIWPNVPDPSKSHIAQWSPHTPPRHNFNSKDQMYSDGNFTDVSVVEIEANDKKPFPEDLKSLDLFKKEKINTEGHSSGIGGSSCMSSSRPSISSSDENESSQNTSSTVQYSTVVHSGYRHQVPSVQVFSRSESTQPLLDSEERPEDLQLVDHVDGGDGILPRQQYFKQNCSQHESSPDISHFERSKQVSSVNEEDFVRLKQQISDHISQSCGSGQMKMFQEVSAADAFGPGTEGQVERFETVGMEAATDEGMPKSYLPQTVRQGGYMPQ

B1: Recombinant human IL27 (R&D Systems cat# 2526-IL-010/CF), Human EBI3-…-Human p28-6-His tag (ligand)
chain: RKGPPAALTLPRVQCRASRYPIAVDCSWTLPPAPNSTSPVSFIATYRLGMAARGHSWPCLQQTPTSTSCTITDVQLFSMAPYVLNVTAVHPWGSSSSFVPFITEHIIKPDPPEGVRLSPLAERQLQVQWEPPGSWPFPEIFSLKYWIRYKRQGAARFHRVGPIEATSFILRAVRPRARYYVQVAAQDLTDYGELSDWSLPATATMSLGKGSGSSRGGSGSGGSGGGGSKLAGVWGFPRPPGRPQLSLQELRREFTVSLHLARKLLSEVRGQAHRFAESHLPGVNLYLLPLGEQLPDVSLTFQAWRRLSDPERLCFISTTLQPFHALLGGLGTQGRWTNMERMQLWAMRLDLRDLQRHLRFQVLAAGFNLPEEEEEEEEEEEEERKGLLPGALGSALQGPAQVSWPQLLSTYRLLHSLELVLSRAVRELLLLSKAGHSVWPLGFPTLSPQPHHHHHH
In assay [1], B1 displayed an EC50 (M), GAS luciferase, NCI-H929/GAS-Luc cells of 3.34e-10 M and an FOLD INDUCTION, GAS luciferase, NCI-H929/GAS-Luc cells of 12.3 fold.

B2: IL27M1, Mouse EBI3-(GGGS)4-p28-(GGGGS)3-Fc (Fc fusion)
chain: YTETALVALSQPRVQCHASRYPVAVDCSWTPLQAPNSTRSTSFIATYRLGVATQQQSQPCLQRSPQASRCTIPDVHLFSTVPYMLNVTAVHPGGASSSLLAFVAERIIKPDPPEGVRLRTAGQRLQVLWHPPASWPFPDIFSLKYRLRYRRRGASHFRQVGPIEATTFTLRNSKPHAKYCIQVSAQDLTDYGKPSDWSLPGQVESAPHKPGGGSGGGSGGGSGGGSFPTDPLSLQELRREFTVSLYLARKLLSEVQGYVHSFAESRLPGVNLDLLPLGYHLPNVSLTFQAWHHLSDSERLCFLATTLRPFPAMLGGLGTQGTWTSSEREQLWAMRLDLRDLHRHLRFQVLAAGFKCSKEEEDKEEEEEEEEEEKKLPLGALGGPNQVSSQVSWPQLLYTYQLLHSLELVLSRAVRDLLLLSLPRRPGSAWDSGGGGSGGGGSGGGGSESKYGPPCPPCPAPPVAGPSVFLFPPKPKDTLMISRTPEVTCVVVDVSQEDPEVQFNWYVDGVEVHNAKTKPREEQFNSTYRVVSVLTVLHQDWLNGKEYKCKVSNKGLPSSIEKTISKAKGQPREPQVYTLPPSQEEMTKNQVSLTCLVKGFYPSDIAVEWESNGQPENNYKTTPPVLDSDGSFFLYSRLTVDKSRWQEGNVFSCSVMHEALHNHYTQKSLSLSLGK
As for B2, in assay [2], the “EC50, luciferase activity, MC9/STAT3-Luc reporter cells” value was around 0.48 nM and the “EC50, phosphorylation of STAT1 in CD4+ T-cells” value is around 2 µg/mL. In addition, in assay [3], the “EC50 (M), STAT3 luciferase, MC9 cells” value was 1.01e-09 M and the “FOLD INDUCTION, STAT3 luciferase, MC9 cells” value was 2.95 fold.

B3: IL27M2, Mouse p28-(GGGGS)3-Fc (Knob) with Mouse EBI3-(GGGGS)3-Fc (Hole/star) (Fc fusion)
chain 1: FPTDPLSLQELRREFTVSLYLARKLLSEVQGYVHSFAESRLPGVNLDLLPLGYHLPNVSLTFQAWHHLSDSERLCFLATTLRPFPAMLGGLGTQGTWTSSEREQLWAMRLDLRDLHRHLRFQVLAAGFKCSKEEEDKEEEEEEEEEEKKLPLGALGGPNQVSSQVSWPQLLYTYQLLHSLELVLSRAVRDLLLLSLPRRPGSAWDSGGGGSGGGGSGGGGSESKYGPPCPPCPAPPVAGPSVFLFPPKPKDTLMISRTPEVTCVVVDVSQEDPEVQFNWYVDGVEVHNAKTKPREEQFNSTYRVVSVLTVLHQDWLNGKEYKCKVSNKGLPSSIEKTISKAKGQPREPQVYTLPPSQEEMTKNQVSLWCLVKGFYPSDIAVEWESNGQPENNYKTTPPVLDSDGSFFLYSRLTVDKSRWQEGNVFSCSVMHEALHNHYTQKSLSLSLGK
chain 2: YTETALVALSQPRVQCHASRYPVAVDCSWTPLQAPNSTRSTSFIATYRLGVATQQQSQPCLQRSPQASRCTIPDVHLFSTVPYMLNVTAVHPGGASSSLLAFVAERIIKPDPPEGVRLRTAGQRLQVLWHPPASWPFPDIFSLKYRLRYRRRGASHFRQVGPIEATTFTLRNSKPHAKYCIQVSAQDLTDYGKPSDWSLPGQVESAPHKPGGGGSGGGGSGGGGSESKYGPPCPPCPAPPVAGPSVFLFPPKPKDTLMISRTPEVTCVVVDVSQEDPEVQFNWYVDGVEVHNAKTKPREEQFNSTYRVVSVLTVLHQDWLNGKEYKCKVSNKGLPSSIEKTISKAKGQPREPQVYTLPPSQEEMTKNQVSLSCAVKGFYPSDIAVEWESNGQPENNYKTTPPVLDSDGSFFLVSRLTVDKSRWQEGNVFSCSVMHEALHNRFTQKSLSLSPGK
For B3, in assay [2], the “EC50, luciferase activity, MC9/STAT3-Luc reporter cells” value was around 0.0032 nM and the “EC50, phosphorylation of STAT1 in CD4+ T-cells” value is around 0.0224 µg/mL.
